Biological target: recombinant His-tagged PLS3 protein (pQE vector) (UniProt Q9NRY6)
Sequence (Q9NRY6 whole entry): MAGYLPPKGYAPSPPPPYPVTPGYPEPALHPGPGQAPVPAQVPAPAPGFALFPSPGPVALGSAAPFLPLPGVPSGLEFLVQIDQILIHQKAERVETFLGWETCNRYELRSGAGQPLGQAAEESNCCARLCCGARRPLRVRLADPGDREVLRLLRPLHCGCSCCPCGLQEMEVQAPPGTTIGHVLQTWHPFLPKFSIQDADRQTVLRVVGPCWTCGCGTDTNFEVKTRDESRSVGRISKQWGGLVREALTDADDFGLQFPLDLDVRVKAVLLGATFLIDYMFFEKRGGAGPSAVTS

recombinant PKC-δ enzyme (Calbiochem)
in vitro phosphorylation: The PLS3 protein was a high-affinity substrate for PKC-δ and the phosphorylation steadily increased over the first 25 minutes | km: it was determined that the km is 10.5 nM
